The conditions of the data set: Bos taurus; pH 7; 25 °C; GdnHCl; CD; Sodium phosphate 20 mM; reversible: yes; whole UniProt chain shown.

Where “and” joins values, the source holds several entries; their conditions need not be identical. Identical values can stand only once.

B1: Gamma-crystallin B wild type, P02526 (protein)
chain: MGKITFYEDRGFQGHCYECSSDCPNLQPYFSRCNSIRVDSGCWMLYERPNYQGHQYFLRRGDYPDYQQWMGFNDSIRSCRLIPQHTGTFRMRIYERDDFRGQMSEITDDCPSLQDRFHLTEVHSLNVLEGSWVLYEMPSYRGRQYLLRPGEYRRYLDWGAMNAKVGSLRRVMDFY
Regarding B1, the denaturant m value stood at 1.3 kcal/mol/M; the unfolding free energy was 5.2 kcal/mol and 6.5 kcal/mol.

The record behind these values is FireProtDB (doi:10.1021/bi00454a022).
